Measured values: the RNAGym collection of RNA variant scans (doi:10.1093/nar/gkz1192)

B1: CPEB3 Ribozyme (parent)
chain: UAACAGGGGGCCACAGCAGAAGCGUUCACGUCGCAGCCCCUGUCAGAUUCUGGUGAAUCUGCGAAUUCUGCUGUAUAUCUC

Variants of: B1
Experiment: self-cleavage, relative activity (ratio to wild type); higher = more cleavage; in vitro, sequencing
How it was run: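 CPEB3 self-cleaving ribozyme mutant libraries were made by rounds of error-prone PCR, barcoded, and transcribed in vitro with T7 RNA polymerase for 5 hours at 37°C. Cleavage occurred during transcription and a 15 min DNase I step before EDTA stop. RNAs were reverse transcribed with template switching and Illumina-sequenced, with DNA sequencing mapping barcodes to variants. Relative activity is the variant's cleaved/total read fraction divided by wild type's (minimum 5 reads), averaged across three batches.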

Compared with UAACAGGGGGCCAAAGCAGAAGCGUUCACGUCGCAGCCCCUGUCAGAUUCUGGUGAAUCUGCGAGUUCUGCUGUAUAUCUC [C14A A65G], UAACAGGGGGCCAAAGCAGAAGCGUUCACGUCGCAGCCCCUGUCAGAUUCUGGUGAUUCUGCGAAUUCUGCUGUAUAUCUC [C14A A57U] is higher in self-cleavage: 0.78 for the first, 1.14 for the second.

Going from UAACAGGGGGCCAAAGCAGAAGCGUUCUCGUCGCAGCCCCUGUCAGAUUCUGGUGAAUCUGCGAAUUCUGCUGUAUAUCUC [C14A A28U] to UAACAGGGGGCCUCAGCAGAAGCGUUCACGUCGCAGCCCCUGUCAGAUUCUGGUGAAUCUGCGAAUUCUGCUGUAUAUCAC [A13U U80A], the self-cleavage rises from 0.76 to 1.25.

Compared with UAACAGGGGGCCUCAGCAGAAGCGUUCACGUCGCAGCCCCUGUCAGAUUCUGGUGAAUCUGCGAAUUCUGCUGUAUAUCCC [A13U U80C], UAACAGGGGGCCUCAGCAGAAGCGUUCACGUCGCAGCCCCUGUCAGAUUCUGGUGAAUCUGCGAAUUCUGCUGUAUAUCGC [A13U U80G] is higher in self-cleavage: 1.18 for the first, 1.27 for the second.

First: UAACAGGGGGCCAAAGCAGAAGCGUUCACGUCGCAGCCCCUGUCAGAUUCUGGUGGAUCUGCGAAUUCUGCUGUAUAUCUC [C14A A56G]
Second: UAACAGGGGGCCUCAGCAGAAGCGUUCACGUCGCAGCCCCUGUCAGAUUCUGGUGAAUCUGCGAAUUCUGCUGAAUAUCUC [A13U U74A]
The self-cleavage of the first is lower: 1.1 for the first, 1.23 for the second.

Compared with UAACAGGGGGCCUCAGCAGAAGCGUUCACGUCGCAGCCCCUGUCAGAUUCUGGUGAAUCUGCGAAUUCUGCUGCAUAUCUC [A13U U74C], UAACAGGGGGCCUCAGCAGAAGCGUUCACGUCGCAGCCCCUGUCAGAUUCUGGUGAAUCUGCGAAUUCCGCUGUAUAUCUC [A13U U69C] is lower in self-cleavage: 1.28 for the first, 0.71 for the second.

First: UAACAGGGGGCCUCAGCAGAAGCGUUCACGUCGCAGCCCCUGUCAGAUUCUGGUGAAUCUGCGAAUUCGGCUGUAUAUCUC [A13U U69G]
Second: UAACAGGGGGCCUCAGCAGAAGCGUUCACGUCGCAGCCCCUGUCAGAUUCUGGUGAAUCUGCGAAUUCAGCUGUAUAUCUC [A13U U69A]
The self-cleavage of the first is higher: 0.85 for the first, 0.74 for the second.

First: UAACAGGGGGCCUCAGCAGAAGCGUUCACGUCGCAGCCCCUGUCAGAUUCUGGUGAAUCUGCGAAUUCUGCCGUAUAUCUC [A13U U72C]
Second: UAACAGGGGGCCUCAGCAGAAGCGUUCACGUCGCAGCCCCUGUCAGAUUCUGGUGAAUCUGCGAAUUCUGCGGUAUAUCUC [A13U U72G]
The self-cleavage of the first is higher: 0.96 for the first, 0.76 for the second.

First: UAACAGGGGGCCUCAGCAGAAGCGUUCACGUCGCAGCCCCUGUCAGAUUCUGGUGAAUCUGCGAAUUCUGCAGUAUAUCUC [A13U U72A]
Second: UAACAGGGGGCCUCAGCAGAAGCGUUCACGUCGCAGCCCCUGUCAGAUUCUGGUGAAUCCGCGAAUUCUGCUGUAUAUCUC [A13U U60C]
The self-cleavage of the first is higher: 0.77 for the first, 0.64 for the second.

Compared with UAACAGGGGGCCAAGGCAGAAGCGUUCACGUCGCAGCCCCUGUCAGAUUCUGGUGAAUCUGCGAAUUCUGCUGUAUAUCUC [C14A A15G], UAACAGGGGGCCAAAGCAGGAGCGUUCACGUCGCAGCCCCUGUCAGAUUCUGGUGAAUCUGCGAAUUCUGCUGUAUAUCUC [C14A A20G] is lower in self-cleavage: 1.1 for the first, 0.96 for the second.

Going from UAACAGGGGGCCUCAGCAGAAGCGUUCACGUCGCAGCCCCUGUCAGAUUCUGGUGAAUCUGCGAAUUCUGCUGUACAUCUC [A13U U76C] to UAACAGGGGGCCUCAGCAGAAGCGUUCACGUCGCAGCCCCUGUCAGAUUCUGGUGAAUCUGCGAAUUCUGCUGUAAAUCUC [A13U U76A], the self-cleavage falls from 1.17 to 1.11.

First: UAACAGGGGGCCAAAGCAGAAGCGUUCACGUCGCUGCCCCUGUCAGAUUCUGGUGAAUCUGCGAAUUCUGCUGUAUAUCUC [C14A A35U]
Second: UAACAGGGGGCCAAAGCAGAAGCGUUCACGUCGCGGCCCCUGUCAGAUUCUGGUGAAUCUGCGAAUUCUGCUGUAUAUCUC [C14A A35G]
The self-cleavage of the first is lower: 0.4 for the first, 1.26 for the second.

Going from UAACAGGGGGCCAAAGCAGAAGCGUUCACGUCGCAGCCCCUGUCAGAUUCUGGUGAAUCUGCGAAUUCUGCUGUAUAUCUC [C14A] to UAACAGGGGGCCUCAGCAGAAGCGUUCACGUCGCAGCCCCUGUCAGAUUCUGGUGAAUCUGCGAAUCCUGCUGUAUAUCUC [A13U U67C], the self-cleavage falls from 1.17 to 0.3.

First: UAACAGGGGGCCUCAGCAGAAGCGUUCACGUCGCAGCCCCUGUCAGAUUCUGGUGAAUCUGCGAAUACUGCUGUAUAUCUC [A13U U67A]
Second: UAACAGGGGGCCUCAGCAGAAGCGUUCACGUCGCAGCCCCUGUCAGAUUCUGGUGAAUCUGCGAAAUCUGCUGUAUAUCUC [A13U U66A]
The self-cleavage of the first is higher: 0.7 for the first, 0.52 for the second.

First: UAACAGGGGGCCUCAGCAGAAGCGUUCACGUCGCAGCCCCUGUCAGAUUCUGGUGAAUCUGCGAAGUCUGCUGUAUAUCUC [A13U U66G]
Second: UAACAGGGGGCCUCAGCAGAAGCGUUCACGUCGCAGCCCCUGUCAGAUUCUGGUGAAUCUGCGAACUCUGCUGUAUAUCUC [A13U U66C]
The self-cleavage of the first is higher: 0.81 for the first, 0.48 for the second.

Compared with UAACAGGGGGCCAAAGCAGAAGCGUUCACGUCGCAGCCCCUGUCUGAUUCUGGUGAAUCUGCGAAUUCUGCUGUAUAUCUC [C14A A45U], UAACAGGGGGCCAAAGCAGAAGCGUUCACGUCGCAGCCCCUGUCGGAUUCUGGUGAAUCUGCGAAUUCUGCUGUAUAUCUC [C14A A45G] is higher in self-cleavage: 0.77 for the first, 1.15 for the second.

Going from UAACAGGGGGCCAAAGCAGAUGCGUUCACGUCGCAGCCCCUGUCAGAUUCUGGUGAAUCUGCGAAUUCUGCUGUAUAUCUC [C14A A21U] to UAACAGGGGGCCAAAGCUGAAGCGUUCACGUCGCAGCCCCUGUCAGAUUCUGGUGAAUCUGCGAAUUCUGCUGUAUAUCUC [C14A A18U], the self-cleavage rises from 0.34 to 0.49.

Going from UAACAGGGGGCCUCAGCAGAAGCGUUCACGUCGCAGCCCCUGUCAGAUUCUGGUGAAUCUGCGAAUUCUGCUGUAUAACUC [A13U U78A] to UAACAGGGGGCCUCAGCAGAAGCGUUCACGUCGCAGCCCCUGUCAGAUUCUGGUGAAUCUGCGAAUUCUGCUGUAUACCUC [A13U U78C], the self-cleavage rises from 1.21 to 1.23.
